From paper PMC5010584, “Comparison of Ga-68-Labeled Fusarinine C-Based Multivalent RGD Conjugates and [^68Ga]NODAGA-RGD—In Vivo Imaging Studies in Human Xenograft Tumors” (Molecular Imaging and Biology, 2016)
Like-named read-outs stand apart in the source and are kept apart here.

What was measured:
[1] = Distribution coefficient (logD), octanol/PBS; assay type: physicochemical
Method: A volume of 500 μl PBS including 0.5 MBq radioligand (approximately 0.5 μg peptide) was combined with 500 μl octanol; the mixture was vortexed for 15 min and centrifuged for 2 min at 2000 rcf. From each phase, an aliquot (50 μl) was pipetted out and measured in a 2480 Wizard2 Automatic Gamma Counter (PerkinElmer, Vienna, Austria). Each measurement was repeated five times. LogD value was calculated as the average log ratio of the radioactivity in the organic fraction and the PBS fraction.

[2] = system: M21 cells (integrin αvβ3 positive); experiment: Internalization assay in M21 cells; assay type: cell-based, human; settings: 90-min incubation, 37 °C
Method: One-milliliter aliquots in Eppendorf tubes were incubated at 37 °C for 1 h in triplicates, and [^68Ga]FSC(succ-RGD)3, [^68Ga]FSC(RGDfE)3, or [^68Ga]FSC(Mal-RGD)3 (approximately 1.5 × 10^6 cpm, 1.2 μg peptides) in PBS with 0.5 % BSA (150 μl, total series) or with 10 μM c(RGDyV) in PBS/0.5 % BSA (150 μl, nonspecific series) at 37 °C was added. After 90-min incubation was stopped by centrifugation, the medium was removed followed by washing (twice) with ice-cold Tris-buffered saline. After incubation in acid wash buffer (20 mM acetate buffer, pH 4.5) at 37 °C for 5 min (two times) and centrifugation, membrane bound activity was collected in plastic vials. Internalized radioligand fraction was collected after lysing cells by addition of 2 M NaOH. The internalized activity was expressed as percentage of total activity per milligram protein after spectrophotometric determination of protein (Bradford assay) in the NaOH fraction.

[3] = Ex vivo biodistribution in mice bearing M21/M21-L xenografts; settings: mouse, in vivo, iv
Method: (§1) For the induction of tumor xenografts, female, athymic BALB/c nude mice (Charles River Laboratories) were injected subcutaneously with either 5 × 10^6 integrin αvβ3-positive M21 cells into the right hind limb and with 5 × 10^6 integrin αvβ3-negative M21-L cells (negative control) into the left hind limb of the same mouse. […] On the day of the experiment, [^68Ga]FSC(succ-RGD)3, [^68Ga]FSC(RGDfE)3, or [^68Ga]FSC(Mal-RGD)3 (∼0.5 MBq/mouse, ∼0.5 μg peptide, respectively) was intravenously injected in the lateral tail vein. Mice were euthanized by cervical dislocation at 1 and 2 h (only for [^68Ga]FSC(succ-RGD)3) after injection. Organs (spleen, pancreas, stomach, intestine, kidney, liver, heart, and lung), blood, muscle tissue, and tumors were dissected and weighed. Activity of the different samples was measured in the gamma counter. Results were expressed as percentage of injected dose per gram tissue (% ID/g).

[4] = system: integrin αvβ3-positive (M21) and integrin αvβ3-negative (M21-L) human melanoma tumors; experiment: as above
Method: as §1

[5] = MicroPET/CT imaging in U87MG tumor-bearing mice; settings: mouse, uptake value in tumor (ROI analysis), U87MG xenograft, PET, 90 min p.i., retro-orbital
Method: To investigate the capabilities of binding to the integrin αvβ3 receptors in the different tumor xenograft models and, at the same time, compare the imaging properties of [^68Ga]FSC(succ-RGD)3 and [^68Ga]NODAGA-RGD, two U87MG tumor-bearing mice were administered retro-orbitally (r.o.) under general anesthesia with [^68Ga]FSC(succ-RGD)3 and [^68Ga]NODAGA-RGD each other (∼6 MBq/mouse, ∼5 μg peptide) at continued days. For the induction of tumor xenografts, female, athymic BALB/c nude mice (AnLab, Prague, Czech Republic) were injected subcutaneously with 5 × 10^6 U87MG cells into the right flank. The tumors were allowed to grow until they had reached a volume of 0.5 to 0.8 cm^3. Imaging experiments were conducted on an Albira microPET/SPECT/CT imaging system (Bruker Biospin Corporation, Woodbridge, CT, USA). MicroPET/CT images were acquired under general anesthesia (isoflurane/O2) and heating at 37 °C. PET data for each mouse was recorded via either dynamic imaging for 90 min (5-min PET scan per frame) or static scans (a 5-min PET scan (axial FOV 148 mm) was performed, followed by a 25-min CT scan (axial FOV 65 mm, 45 kVp, 400 μA, at 600 projections)) at 90 min p.i. […] The uptake values (%ID/g) in kidneys, heart, and tumor were analyzed by drawing standardized volumes of interest.

[6] = system: integrin αvβ3-positive M21 tumor; settings: mouse, in vivo, iv
Method: To compare the imaging properties of [^68Ga]FSC(succ-RGD)3, [^68Ga]FSC(RGDfE)3, and [^68Ga]FSC(Mal-RGD)3, microPET/CT imaging experiments were conducted on an Inveon microPET/CT scanner (Siemens Preclinical Solutions, Knoxville, USA). BALB/c nude mice bearing M21-positive tumor xenografts were administered with [^68Ga]FSC(succ-RGD)3 (or [^68Ga]FSC(RGDfE)3, [^68Ga]FSC(Mal-RGD)3, ∼5 MBq/mouse, ∼5 μg peptide) via intravenous (i.v.) injection. The body temperature of mice was maintained at 37 °C on the scanner bed and in the incubation chambers using heating pads. Dynamic 10-min duration PET scans were performed for 50 min while static PET scans (10 min) were performed at 1-h post-injection (p.i.), followed by a 25-min CT scan (spatial resolution, 113 μm; 80 kV, 500 mA). The mice remained under general anesthesia (isoflurane/O2) during the time between injection and imaging. […] Spherical isocontours were set at 50 % of the maximal pixel value to measure uptake values (Bq/ml) in kidneys, heart, and tumor.

integrin αvβ3 = target: T1, integrin αvβ3 (Homo sapiens, UniProt P05106+P06756); experiment: Binding affinity for immobilized integrin αvβ3, displacement of [^125I]c(RGDyV); settings: isolated integrin αvβ3, radioligand [^125I]c(RGDyV), three independent measurements
T1 construct: purchased Millipore-Chemicon, Temecula, CA, USA
T1 sequence (P06756 31-889 limits assumed): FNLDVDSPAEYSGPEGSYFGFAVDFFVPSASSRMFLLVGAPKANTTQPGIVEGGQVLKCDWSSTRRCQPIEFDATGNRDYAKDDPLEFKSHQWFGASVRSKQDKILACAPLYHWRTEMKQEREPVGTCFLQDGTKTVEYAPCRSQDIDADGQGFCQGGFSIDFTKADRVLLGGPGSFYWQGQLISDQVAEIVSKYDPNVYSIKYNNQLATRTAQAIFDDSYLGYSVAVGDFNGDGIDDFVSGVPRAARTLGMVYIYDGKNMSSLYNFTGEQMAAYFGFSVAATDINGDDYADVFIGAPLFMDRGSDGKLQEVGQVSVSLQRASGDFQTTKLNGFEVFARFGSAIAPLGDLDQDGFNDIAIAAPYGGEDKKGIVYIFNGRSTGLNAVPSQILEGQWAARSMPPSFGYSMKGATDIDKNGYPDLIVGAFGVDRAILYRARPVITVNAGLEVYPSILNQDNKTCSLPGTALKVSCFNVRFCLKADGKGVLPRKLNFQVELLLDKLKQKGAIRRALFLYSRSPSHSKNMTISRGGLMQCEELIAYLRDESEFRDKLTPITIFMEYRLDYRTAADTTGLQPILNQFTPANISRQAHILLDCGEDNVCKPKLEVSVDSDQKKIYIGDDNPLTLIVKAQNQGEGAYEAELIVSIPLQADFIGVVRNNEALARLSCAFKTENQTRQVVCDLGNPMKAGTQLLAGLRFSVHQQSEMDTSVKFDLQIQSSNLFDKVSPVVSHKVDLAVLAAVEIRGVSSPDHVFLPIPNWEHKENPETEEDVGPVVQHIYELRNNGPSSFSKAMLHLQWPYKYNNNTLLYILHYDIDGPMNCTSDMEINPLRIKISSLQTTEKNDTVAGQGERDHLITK
T1 sequence (P06756 891-1048 limits assumed): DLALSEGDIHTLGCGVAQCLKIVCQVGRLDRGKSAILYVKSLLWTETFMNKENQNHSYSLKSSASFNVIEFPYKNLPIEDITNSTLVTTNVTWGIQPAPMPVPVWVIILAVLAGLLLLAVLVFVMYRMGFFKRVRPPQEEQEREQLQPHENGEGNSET
T1 sequence (P05106 27-788): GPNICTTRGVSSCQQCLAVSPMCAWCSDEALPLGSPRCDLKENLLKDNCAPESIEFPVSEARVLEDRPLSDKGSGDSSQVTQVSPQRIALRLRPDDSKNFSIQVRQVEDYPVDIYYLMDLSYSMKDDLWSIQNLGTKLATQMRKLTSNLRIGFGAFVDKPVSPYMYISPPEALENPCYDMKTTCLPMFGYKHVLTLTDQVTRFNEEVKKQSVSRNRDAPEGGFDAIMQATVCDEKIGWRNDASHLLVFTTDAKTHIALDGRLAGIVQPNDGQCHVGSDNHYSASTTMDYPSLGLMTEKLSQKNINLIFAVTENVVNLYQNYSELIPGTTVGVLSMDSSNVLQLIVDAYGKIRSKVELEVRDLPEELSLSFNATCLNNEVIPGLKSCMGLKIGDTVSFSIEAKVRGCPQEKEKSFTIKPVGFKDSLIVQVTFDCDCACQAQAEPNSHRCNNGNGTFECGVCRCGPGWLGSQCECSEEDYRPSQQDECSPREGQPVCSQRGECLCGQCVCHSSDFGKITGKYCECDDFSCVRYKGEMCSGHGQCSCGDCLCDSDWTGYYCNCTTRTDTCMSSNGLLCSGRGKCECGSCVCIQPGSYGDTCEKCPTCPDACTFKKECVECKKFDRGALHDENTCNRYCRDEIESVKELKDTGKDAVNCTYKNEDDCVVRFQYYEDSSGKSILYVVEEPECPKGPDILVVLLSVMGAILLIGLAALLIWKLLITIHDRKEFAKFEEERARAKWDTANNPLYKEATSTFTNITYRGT
Method: In vitro binding affinities of cyclo(-Arg-Gly-Asp-DTyr-Val-) (c(RGDyV)) and the three FSC-RGD conjugates were determined by using isolated integrin αvβ3 (Millipore-Chemicon, Temecula, CA, USA) and I-125-labeled c(RGDyV) as radioligand. ([^125I]c(RGDyV) was produced as described in [18]). To integrin αvβ3, coated overnight at 4 °C onto 96-well plates (Nunc, Thermo Fisher Scientific, Vienna, Austria), [^125I]c(RGDyV) and the corresponding peptides in increasing concentrations from 0.001 to 100 nM were added. Plates were washed, and integrin bound activity was recovered with 2-M NaOH solution and counted in a gamma counter. OriginPro 8.5 software (Northampton, MA, USA) was used to calculate half maximal inhibitory concentration (IC50) values in three independent measurements.

[7] = system: integrin αvβ3-positive (M21) and integrin αvβ3-negative (M21-L) human melanoma tumors; settings: 1 h, cited from earlier work
[8] = M21 model, 1 h p.i., not statistically significant

Structure (SMILES) | logD [1] | internalized activity, % of total activity per milligram protein [2] [% cpm/mg] | tissue uptake at 1 h ([3]; Heart uptake) [%ID/g] | tissue uptake at 1 h ([3]; Intestine uptake) [%ID/g] | tissue uptake at 1 h ([3]; Kidneys uptake) [%ID/g] | tissue uptake at 1 h ([3]; Liver uptake) [%ID/g] | tissue uptake at 1 h ([3]; Lung uptake) [%ID/g] | tissue uptake at 1 h ([3]; M21-L tumor uptake) [%ID/g] | tissue uptake at 1 h ([3]; M21 tumor uptake) [%ID/g] | tissue uptake at 1 h ([3]; Muscle uptake) [%ID/g] | tissue uptake at 1 h ([3]; Pancreas uptake) [%ID/g] | tissue uptake at 1 h ([3]; Stomach uptake) [%ID/g] | M21-L tumor uptake ([4]; mouse, in vivo, iv, 1 h) [% ID/g] | further results
C/C1=C/C(=O)N(O)CCC[C@H](NC(=O)CCC(=O)NCCCC[C@@H]2NC(=O)[C@@H](Cc3ccccc3)NC(=O)[C@H](CC(=O)O)NC(=O)CNC(=O)[C@H](CCCNC(=N)N)NC2=O)C(=O)OCC/C(C)=C\C(=O)N(O)CCC[C@H](NC(=O)CCC(=O)NCCCC[C@@H]2NC(=O)[C@@H](Cc3ccccc3)NC(=O)[C@H](CC(=O)O)NC(=O)CNC(=O)[C@H](CCCNC(=N)N)NC2=O)C(=O)OCC/C(C)=C\C(=O)N(O)CCC[C@H](NC(=O)CCC(=O)NCCCC[C@@H]2NC(=O)[C@@H](Cc3ccccc3)NC(=O)[C@H](CC(=O)O)NC(=O)CNC(=O)[C@H](CCCNC(=N)N)NC2=O)C(=O)OCC1 [[^68Ga]FSC(succ-RGD)3, metal not drawn] | -3.6 ± 0.1 | 5.7 ± 0.6 | 1.21 ± 0.28 | 2.41 ± 0.8 | 8.12 ± 1.09 | 3.54 ± 0.63 | 2.42 ± 0.22 | 1.25 ± 0.06 | 3.69 ± 0.94 | 0.52 ± 0.19 | 0.61 ± 0.13 | 2.02 ± 1.35 | 1.10 ± 0.30 | M21/kidneys ratio ([4]; 1 h p.i.): 0.5 ± 0.1; M21/kidneys ratio ([4]; 2 h p.i.): 0.6 ± 0.1; Blood uptake ([4]; mouse, in vivo, iv, 1 h): 0.63 ± 0.26 % ID/g; Spleen uptake ([4]; mouse, in vivo, iv, 1 h): 3.27 ± 0.64 % ID/g; tissue uptake at […] [5]: 3.8 %ID/g; earliest visualization of the receptor-positive tumor in dynamic PET [6]: 10 min p.i.
CC(C)[C@@H]1NC(=O)[C@@H](Cc2ccc(O)cc2)NC(=O)[C@H](CC(=O)O)NC(=O)CNC(=O)[C@H](CCCNC(=N)N)NC1=O [c(RGDyV), cyclo(-Arg-Gly-Asp-DTyr-Val-)] | – | – | – | – | – | – | – | – | – | – | – | – | – | IC50 (integrin αvβ3): 6.2 ± 1.6 nM
C/C1=C/C(=O)N(O)CCC[C@H](NC(=O)CC[C@@H]2NC(=O)[C@@H](Cc3ccccc3)NC(=O)[C@H](CC(=O)O)NC(=O)CNC(=O)[C@H](CCCNC(=N)N)NC2=O)C(=O)OCC/C(C)=C\C(=O)N(O)CCC[C@H](NC(=O)CC[C@@H]2NC(=O)[C@@H](Cc3ccccc3)NC(=O)[C@H](CC(=O)O)NC(=O)CNC(=O)[C@H](CCCNC(=N)N)NC2=O)C(=O)OCC/C(C)=C\C(=O)N(O)CCC[C@H](NC(=O)CC[C@@H]2NC(=O)[C@@H](Cc3ccccc3)NC(=O)[C@H](CC(=O)O)NC(=O)CNC(=O)[C@H](CCCNC(=N)N)NC2=O)C(=O)OCC1 [[^68Ga]FSC(RGDfE)3, metal not drawn] | -3.8 ± 0.2 | 5.3 ± 0.7 | 1.52 ± 0.13 | 3.21 ± 0.48 | 11.5 ± 1.87 | 12.1 ± 1.34 | 2.48 ± 1.07 | 1.1 ± 0.3 | 5.49 ± 0.94 | 0.94 ± 0.09 | 1.04 ± 0.12 | 4.76 ± 0.25 | 1.25 ± 0.06 | tissue uptake at 1 h ([3]; Blood uptake): 0.4 ± 0.08 %ID/g; tissue uptake at 1 h ([3]; Spleen uptake): 9.13 ± 0.27 %ID/g
N=C(N)NCCC[C@@H]1NC(=O)[C@H](CCCCNC(=O)CCC(C(=O)O)N2CCN(CC(=O)O)CCN(CC(=O)O)CC2)NC(=O)[C@@H](Cc2ccccc2)NC(=O)[C@H](CC(=O)O)NC(=O)CNC1=O (stereo partly drawn) [[^68Ga]NODAGA-RGD, metal not drawn] | – | – | – | – | – | – | – | – | – | – | – | – | – | higher tumor to blood ratio versus [^68Ga]FSC(succ-RGD)3 [4, 8]: 1.8 fold; higher tumor to kidney ratio versus [^68Ga]FSC(succ-RGD)3 [4, 8]: 2 fold; M21/kidneys ratio ([7]; same murine model, calculated based on the literature data ref 14): 1.0 ± 0.4; M21 tumor uptake ([7]; mouse, in vivo): 1.3 %ID/g
